From the nanobody polyreactivity screen of Harvey et al. (2022)

Test: yeast display, Sf9 membrane polyspecificity reagent, FACS + sequencing; frameworks hold sequencing errors
In short: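 A synthetic nanobody library was expressed on Saccharomyces cerevisiae BJ5465 by galactose induction for 36–48 hours. The library was stained for 1 hour at 4 °C with 10% biotinylated, detergent-solubilized Sf9 membrane reagent and enriched with streptavidin microbeads before FACS. Low and high (top ~1%) gates were set on anti-HA fluorescence for expression and streptavidin fluorescence for reagent binding, and each polyreactivity label reflects the gate of origin.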
With “QVQLVESGGGLVQAGGSLRLSCAASGFIFLHYAMGWYRQAPGKERELVAAISSSGGRTYYADSVKGRFSISRDNAKNTVYLQMNSLKPEDTAVYYCAAEAYPWYVPYDYWGQGTQVTVSS” the “polyreactivity (PSR sort gate)” value was “high polyreactivity”. With “QEQLQESVVCQVQAGRSLHLSCAASGNIIRYSYMGWYRQAPGNERELVAAITYGTSTNYADSVKGRFTISRDHAKNTVYLQMTSLKPEDTAVYYCAVDVNYGDPLDNWCQGTQVTVSS” the “polyreactivity (PSR sort gate)” value was “high polyreactivity”. With “QVQLVESGGGLVQAGGSLRLSCAASGSILGSYAMGWYRQAPGKERELVAAINYSGGSTYYADSVKGRFTISRDNAKNTVYLQMNSLKPEETAVYYCAAVATAGYSNYKLDYWGQGTQVTVSS” the “polyreactivity (PSR sort gate)” value was “low polyreactivity”. For “QVQLVESGGGLVQAGGSLRLSCAASGRIFSYYAMGWYRQAPGKERELVAAITSGGSTYYADSVKGRFTISRDNAKNTVYLQMNSLKPEDTAVYYCNVVSDFRYYYWGQGTQVTVSS”, the “polyreactivity (PSR sort gate)” value was “low polyreactivity”. In the case of “QVQVVESGGGIVHAEGSLRLSCAPSGLTFPVYAMVWYRQAPRKERELVAAISKSGGNTYYADSVKGRFTISRDNAKNTVYLQMNSLKPEDTAVYYCAAGYLSGNYARYGYWGQGTQVTVSS”, the “polyreactivity (PSR sort gate)” value is reported as “high polyreactivity”. With “QVQLVESGGGLVQAGGSLRLSCAASGIIFFSYAMGWYRQAPGKERELVAAISGTGGNTYYADSVKGRFTISRDNAKNTVYLQMNSLKPEDTAVYYCAADQEWYYYFDSFAYYILGYWGQGTQVTVSS” the “polyreactivity (PSR sort gate)” value was “high polyreactivity”. With “QVQLVESGGGLVQAGGSLRLSCAASGIIYYGYAMGWYRQAPGKERELVAAISRSGGSTYYADSVKGRFTISRDNAKNTVYLQMNSLKPEDTAVYYCAASGVTYDYWGQGTQVTVSS” the “polyreactivity (PSR sort gate)” value was “high polyreactivity”. For “QFQLVESGGGLVQARGSLRLSCAASGITFKEYAMGWYRQAPGTERELVAAISKSGGSTYYADSVKGRFTISRDNAKNTVYLQMTSLKPEDTAVYYCAADYAEYEYGDYYWGQGTQVTVSS”, the “polyreactivity (PSR sort gate)” value was “low polyreactivity”. With “QVQLVESGGGLVQAGGSVRLSCAASGFIISYYAMGWYRQAPGKERELFAAISWSGGSTYYADSVKGSFTISRDNAKNTVYLQMNSLKPEDTAVYYCAADFLYGAEGNDYWGQGTQVTVSS” the “polyreactivity (PSR sort gate)” value was “high polyreactivity”. For “QVQLVESGGGLVQAGGSLRLSCAASGITFTRNVMGWYRQAPGKERELVAAISGSGGSTYYADSVKGRFTISRDNAKNTVYLQMNSLKPEDTAVYYCAARSRGGRRYDYWGQGTQVTVSS”, the “polyreactivity (PSR sort gate)” value was “high polyreactivity”. For “QVQLVESGGGLVQAGGSLRLSCAASGSTFGIYAMGWYRQAPGKERELVAAISWRGGRTYYADSVKGRFTISRDNAKNTVYLQMNSLKPEDTAVYYCAADYRYLWEGYDYWGQGTQVTVSS”, the “polyreactivity (PSR sort gate)” value was “low polyreactivity”. For “QVQLVESGGGLVQEGGSLRLSCAASGYIFVRYAMGWYRQAPGKEREFVAAISSSGGSTRYADSVKGRFTISRDNAKYTVYLQMHRLKPEDTPVYYCAATSVARNGSPMYYWGQGTLVTVSS”, the “polyreactivity (PSR sort gate)” value was “high polyreactivity”. For “QVQLVESGGGLFQAGGSLRISCAASGRTFWYYAMGWYRPAPGKERELVAAITRGTSTYADSVKGRYTISRDNAKNTVYLQMNSLKPEDTAVYYCATYFRVWYRSYDYWGQGTQVTVSS”, the “polyreactivity (PSR sort gate)” value was “high polyreactivity”. In the case of “QVQLVESGGGLVQAGGSLRCSCAASGFTFYSYAMGWYRQAPGKERELVAAITESGGSTYYADSVKGRFTISRDNAKNTVYLQMNSLKPEDTAVYYCAAQFAQRPQYYYFVWYDYWGQGTQVTVSS”, the “polyreactivity (PSR sort gate)” value is reported as “low polyreactivity”. In the case of “QVQLVESGGGLVQAGGSLRLSCAASGSTFFVYAMGWYRQPPGKERELVADINWSSGITYYADSVKGRFTISRDNAKNNVYLQMNSLKREDTAVYYCKKDERYVTWSYFPNRYNYWGQGTQVTVSS”, the “polyreactivity (PSR sort gate)” value is reported as “low polyreactivity”. For “QVQLVESGGGLVQAGGSLRLSCAASGRTFRYYAMGWYRQAPGKERELVAAITSGGSTYYADSVKGRFTISRDNAKNTVYLQMNSLKPEDTAVYYCAAVPAGLWATYPQFRYGYWGQGTQVTVSS”, the “polyreactivity (PSR sort gate)” value was “high polyreactivity”. In the case of “QVQLVESGGGLVQAGGSLRLSCAASGSTFLYYAMGWYRQAPGKERELVAVISWSGVSTYYADSVKGRFTISRDNAKNTVYLQMNSLKPEDTAVYYCNTGNHYIRTYGYWGQGSQVTVSS”, the “polyreactivity (PSR sort gate)” value is reported as “low polyreactivity”. In the case of “QVQLVESGGGLVQAGGSLRLSCAASGGIFARNVMGWYRQAPGKERELVAAISGSGGSTYYADSVKGRFTISRDNAKNTVYLQMNSLKPEDTAVYYCAARTPGVSVYKDGYWGQGTQVTVSS”, the “polyreactivity (PSR sort gate)” value is reported as “low polyreactivity”. For “QVQLVESGGGLVQAGRSLRLSCAASGSTFWFYAMGWYRQAPGKERELVASINSGGSTYYADSVKGRFTISRDNAKNTVYLQMNSLKPEDTAVFYCAADAYSWWGRWERYPYTTMYYWGQGTQVTVSS”, the “polyreactivity (PSR sort gate)” value was “low polyreactivity”. For “QVQLLESGGRLVQAGGSLRLSCAASGSTYNQYDMGWYRQAPGKERELVAAISTNGGRTYYADSVKGRFTISRDNAKNTVYLLMNSLKPEYTAVYYCNRAGRGRWSNMDHWGQGTQVTVSS”, the “polyreactivity (PSR sort gate)” value was “high polyreactivity”. For “QVQLVESGGGLVQAGGSLRLSCAASGSTFYGYVMGWYRQAPGKERDFVAGITRGGSTNYADSVKGRFTISRDNAKNTVYLQMNSLKPEDTAVYYCATRYFSRYYYWGQGTQVTVSS”, the “polyreactivity (PSR sort gate)” value was “high polyreactivity”.
